Read-outs that look alike come from different tables or passages of the source.
Key:
[1] = biological target: T1, DNA polymerase beta 8-kDa domain (isolated) (rat, UniProt P06766 1-87); test: FRET
[2] = biological target: T2, DNA polymerase beta, intact (rat, UniProt P06766 1-335); test: fluorescence titration
[3] = biological target: T1, DNA polymerase beta 8-kDa domain …; test: fluorescence titration
[4] = biological target: T2, DNA polymerase beta, intact; test: fluorescence titration; remark: listed apart in the source

B1: 5'-Fl-dT(pT)19-CP-3' (ssDNA)
DNA: TTTTTTTTTTTTTTTTTTTT
B1: binds [1].

B2: dεA(pεA)13 (ssDNA)
DNA: AAAAAAAAAAAAAA
modifications: all adenines 1,N6-etheno-A (chloroacetaldehyde)
B2: binds [2].

B3: dεA(pεA)9 (ssDNA)
DNA: AAAAAAAAAA
modifications: all adenines 1,N6-etheno-A (chloroacetaldehyde)
B3: binds [3].

B4: dεA(pεA)19 (ssDNA)
DNA: AAAAAAAAAAAAAAAAAAAA
modifications: all adenines 1,N6-etheno-A (chloroacetaldehyde)
B4: binds [4].
